Data from paper PMC4715444, “A simple and rapid method for measuring α-D-phosphohexomutases activity by using anion-exchange chromatography coupled with an electrochemical detector” (PeerJ, 2016).

Substrate: O=P(O)(O)O[C@H]1O[C@H](CO)[C@@H](O)[C@H](O)[C@H]1O
Assay: HPAEC-PAD, direct detection of hexose phosphates
Assay type: biochemical, Arabidopsis thaliana
Conditions: 20 mM PBS pH 7.0, 10 mM MgSO4, 20 µM glucose-1,6-bisphosphate, 30 °C
From the text: HPAEC-PAD, direct detection of hexose phosphates on AtAGM

B1: AtAGM (Arabidopsis thaliana) (protein)
chain: MDEIQIASILKSSELFPIPQGVKLSYGTAGFRGDAKLLESTVYRVGILSALRSLKLGSATVGLMITASHNKVSDNGIKVSDPSGFMLSQEWEPFADQIANASSPEELVSLIRKFMEKEEIAIGENNKGAEVWLGRDTRPSGESLLRAGEIGVGSILGSVAIDIGILTTPQLHWMVRAKNKGLKATENDYFENLSTSFRCLIDLIPSSGNDKLEISKLLVDGANGVGGQKIEKLRGSLSNLDVEIRNTGRDGGVLNEGVGADFVQKEKVLPVGFGFKDVGMRCASLDGDADRLVYFYIPSDSSEKVELLDGDKILSLFALFIKEQLNALEDDEERKQSRLGVVQTAYANGASTDYLKHLGLDVVFAKTGVKHLHEKAAEFDIGIYFEANGHGTILFSESFLSWLVSKQKDLTAKGQGGSEEHKAVSRLMAVSNLINQAVGDALSGVLLVEVILQHLGWSIEKWNELYKDLPSRQIKVEVPDRTAVVTTSEETEALRPMGIQDAINSEIKKYSRGRAFIRPSGTEDVVRVYAEASTQEDADSLANSVAQLVKSFLGSS
Km: 679.18 ± 156.40 µM
Vmax: 0.137 µmol/min
kcat: 40.4 s⁻¹
